Type in all cases: cell-based, human
The test system of test [1] is Rx::Venus-sorted cells (KhES-1-derived NR, Day 25). The test can be described thus: Search of factor that maintains property of retina at preparation into sheet again (Example 18). The conditions noted are these: for expression intensity of Rx::Venus: compared with PBS control, 10 days after seeding. The arrangement: expression intensity of Rx::Venus, concentration dependency: dose or concentration left out as unconfirmed. On the procedure: The aggregates (NR) of Day 25 from initiation of the suspension culture prepared in Example 1 were washed with PBS, and a neuronal cell dispersion solution (manufactured by FUJIFILM Wako Pure Chemical Corp.) was added. After incubation at 37° C., they were dispersed into single cells by pipetting, and sorting was carried out with Rx::Venus as an index using Cell sorter ARIAII (Becton, Dickinson and Company).
3 days after seeding, the medium was similarly replaced so as to maintain the concentrations of the low-molecular compounds or the proteins described in Tables 1 and 2. […] 10 days after seeding, fixation was performed in 4% PFA, and the evaluation of the cells after sorting was conducted with Rx::Venus as an index under a fluorescence microscope (BZ-X810 manufactured by Keyence Corp.).

For test [2], the system named is KhES-1 Rx::Venus aggregates. The test is described as follows: Differentiation with or without BMP4: retinal tissue versus brain organoid (Example 23). The conditions noted are these: group supplemented with BMP4. On the procedure:
Human ES cells (KhES-1 strain (Non Patent Literature 3)) genetically engineered so as to have Rx::Venus reporter gene were cultured under feeder-free conditions in accordance with the method described in “Scientific Reports 4, 3594 (2014)”. As a feeder-free medium, StemFit medium (trade name: AK03N, manufactured by Ajinomoto Co., Inc.) was used, and as a scaffold in place of feeder cells, Laminin511-E8 (trade name, manufactured by Nippi, Inc.) was used. 300 nM SAG was added at the start of suspension culture (at the start of differentiation), and brain organoid was prepared on Day 3 from initiation of the suspension culture without adding BMP4. As a control, a group supplemented with BMP4 was established. Fluorescence microscope observation was performed as to the brain organoid of Day 26 from initiation of the suspension culture prepared in this way (FIG. 70). […] Further, these aggregates were fixed in 4% PFA. Sections were prepared and stained with DAPI and anti-FoxG1 antibody (Takara Bio Inc.), and observation was performed under a fluorescence microscope (BZ-X810 manufactured by Keyence Corp.). […] On the other hand, in the group that was not supplemented with BMP4, FoxG1 positive was confirmed, and it was confirmed that brain organoid was differentiated (FIG. 71).

Test [3] relates to Rx::Venus-sorted NR cells on Transwell (KhES-1-derived). The test is described as follows: Effect of FGF8 at preparation into sheet again, microscopy and FACS (Example 20). On the procedure:
The aggregates (NR) of Day 24 from initiation of the suspension culture prepared in Example 1 were washed with PBS, and a neuronal cell dispersion solution (manufactured by FUJIFILM Wako Pure Chemical Corp.) was added. After incubation at 37° C., they were dispersed into single cells by pipetting, and sorting was carried out with Rx::Venus as an index using Cell sorter ARIAII (Becton, Dickinson and Company). […] As a control, a group that was not supplemented with FGF8 (FGF8−) was also established.
Medium replacement was carried out once every 3 to 4 days. FGF8 was also added at the time of medium replacement. Sheets after a lapse of differentiation for 63 days and 40 days after reseeding were observed under a fluorescence stereo microscope (FIGS. 60 and 61). For FACS analysis, the aggregates of Differentiation Day 64 and Day 41 after reseeding were washed with PBS and dispersed into single cells using a neuronal cell dispersion solution (manufactured by FUJIFILM Wako Pure Chemical Corp.). Then, formaldehyde fixation was performed using Fixation buffer (Becton, Dickinson and Company).
Thereafter, after fixation using Fixation buffer (Becton, Dickinson and Company) and washing with Perm/Wash buffer (Becton, Dickinson and Company), staining was performed with anti-CHX10-Alexa Fluor 647 conjugate antibody (Santa Cruz Biotechnology), anti-Sox2-BV421 conjugate antibody (BioLegend, Inc.), anti-Ki67 antibody (Becton, Dickinson and Company), and anti-CRX-Alexa Fluor 647 conjugate antibody (Santa Cruz Biotechnology). After washing of the antibodies with Perm/Wash buffer (Becton, Dickinson and Company), measurement was performed using FACSCantoII (BD Biosciences), and analysis was conducted using FlowJo. As a control, neural retinal tissue having the same number of differentiation days that was not reorganized was also established (FIG. 62).

The test system of test [4] is sorted or unsorted dispersed NR cells (KhES-1 Rx::Venus). The test can be described thus: Aggregate reforming by addition of FGF8 and retinal differentiation, microscopy and FACS (Example 19). On the procedure: The aggregates (NR) of Day 24 from initiation of the suspension culture prepared in Example 1 were washed with PBS, and a neuronal cell dispersion solution (manufactured by FUJIFILM Wako Pure Chemical Corp.) was added. After incubation at 37° C., they were dispersed into single cells by pipetting, and sorting was carried out with Rx::Venus as an index using Cell sorter ARIAII (Becton, Dickinson and Company). The cells after sorting were seeded at 2.0 to 5.0×10^4 cells per well to a low adhesive V plate. As controls, a group that was not supplemented with FGF8 (FGF8−) and a group that was not sorted (unsorted) were also established.
Medium replacement was carried out once every 3 to 4 days. FGF8 was also added at the time of medium replacement. […] RPE cells were partially observed in the sorted FGF8− group.
Further, the aggregates of Culture Day 54 for aggregate reforming (Day 30 after reseeding) were washed with PBS and dispersed into single cells using a neuronal cell dispersion solution (manufactured by FUJIFILM Wako Pure Chemical Corp.). Then, formaldehyde fixation was performed using Fixation buffer (Becton, Dickinson and Company). Thereafter, after washing with Perm/Wash buffer (Becton, Dickinson and Company), staining was performed with anti-CHX10-Alexa Fluor 647 conjugate antibody (Santa Cruz Biotechnology), anti-Sox2-BV421 antibody (BioLegend, Inc.), anti-Ki67-Alexa Fluor 647 conjugate antibody (Becton, Dickinson and Company), and anti-CRX-Alexa Fluor 647 conjugate antibody (Santa Cruz Biotechnology). After washing of the antibodies with Perm/Wash buffer (Becton, Dickinson and Company), measurement was performed using FACSCantoII (BD Biosciences), and analysis was conducted using FlowJo. As a control, neural retinal tissue having the same number of differentiation days that was not reorganized was also established.

Test [5] concerns CD39-sorted cells of Islet-1 KO KhES-1-derived aggregates (NR). The test is described as follows: Islet-1 KO hESC-retina sheet prepared by sorting with CD39 and addition of FGF8 (Example 26). The conditions noted are these: 50 ng/mL FGF8; Day 73. On the procedure:
For aggregates differentiated with 300 nM SAG at the start of suspension culture (at the start of differentiation, dd0), the aggregates (NR) of Day 25 from initiation of the suspension culture were dispersed into single cells and stained at 37° C. for 15 minutes using anti-CD39-APC conjugate antibody (Miltenyi Biotec). Then, sorting was carried out with CD39-APC as an index using Cell sorter ARIAII (Becton, Dickinson and Company). The cells after sorting were seeded at 8.0×10^5 cells per well into 12-well Transwell coated with collagen gel. […] As a control, a group that was not supplemented with FGF8 (FGF8−) was also established.
Medium replacement was carried out once every 3 to 4 days. FGF8 was also added at the time of medium replacement.

Setting [6] is: versus neural retinal tissue not reorganized.
Where [7] appears, read: sorted group supplemented with FGF8.

B1: FGF4: fibroblast growth factor, FGF signaling pathway agonist (protein, UniProt P08620 31-206, looked up)
Fibroblast growth factor 4: APTAPNGTLEAELERRWESLVALSLARLPVAAQPKEAAVQSGAGDYLLGIKRLRRLYCNVGIGFHLQALPDGRIGGAHADTRDSLLELSPVERGVVSIFGVASRFFVAMSSKGKLYGSPFFTDECTFKEILLPNNYNAYESYKYPGMFIALSKNGKTKKGNRVSPTMKVTHFLPRL
For B1, in test [1], the “expression intensity of Rx::Venus” value is reported as “high expression intensity of Rx::Venus”.

B2: BMP4: exogenous human recombinant BMP4, BMP signaling pathway agonist (protein, UniProt P12644 293-408, looked up)
Bone morphogenetic protein 4: SPKHHSQRARKKNKNCRRHSLYVDFSDVGWNDWIVAPPGYQAFYCHGDCPFPLADHLNSTNHAIVQTLVNSVNSSIPKACCVPTELSAISMLYLDEYDKVVLKNYQEMVVEGCGCR
B2: the FoxG1 staining result in test [2] is reported as “FoxG1 was negative”. Besides, in test [2] (Day 26), the “differentiated tissue (Rx::Venus)” value is on record as “Rx::Venus-positive retinal tissue was observed to be differentiated”.

B3: FGF8: fibroblast growth factor, FGF signaling pathway agonist (protein, UniProt P55075 23-233, looked up)
Fibroblast growth factor 8: QEGPGRGPALGRELASLFRAGREPQGVSQQHVREQSLVTDQLSRRLIRTYQLYSRTSGKHVQVLANKRINAMAEDGDPFAKLIVETDTFGSRVRVRGAETGLYICMNKKGKLIAKSNGKGKDCVFTEIVLENNYTALQNAKYEGWYMAFTRKGRPRKGSKTRQHQREVHFMKRLPRGHHTTEQSLRFEFLNYPPFTRSLRGSQRTWAPEPR
For the molecule B3, the “Rx::Venus positive rate (FACS)” value in test [3] (group supplemented with FGF8, Day 41 after reseeding) was at least 95%. Besides, the “black RPE in sheet” value in test [3] (sheets supplemented with FGF8) was “hardly observed”. Besides, the “distribution of Rx::Venus-positive cells in sheet” value in test [3] (sorted then supplemented with FGF8, 40 days after reseeding) is listed as “Rx::Venus-positive cells were uniformly present in the whole wells”. Further, in test [3] (setting [6]), the “percentage of Chx10-positive and Sox2-positive neural retinal progenitor cells or Crx-positive photoreceptor progenitor cells” value was “equivalent as compared with neural retinal tissue”; the “percentage of Rx::Venus-positive and Ki67-positive proliferative retinal cells” value is “tended to be large as compared with neural retinal tissue”. The “expression intensity of Rx::Venus, concentration dependency” value in test [1] (FGF8) is on record as “the highest expression intensity of Rx::Venus”. Besides, the “expression intensity of Rx::Venus” value in test [1] is recorded as “high expression intensity of Rx::Venus”. Besides, in test [4] (setting [7]), the “percentage of Chx10-positive and Sox2-positive neural retinal progenitor cells” value is “high”; the “percentage of Crx-positive photoreceptor progenitor cells” value is reported as “tended to be low”. Moreover, the “RPE cells or Rx::Venus-negative masses” value in test [4] (sorted, FGF8+, Day 10 after reseeding) was “RPE cells or Rx::Venus-negative masses were not observed”. In test [4] (unsorted group supplemented with FGF8, Day 30 after reseeding), the “Rx::Venus positive rate (FACS)” value is reported as “the Rx::Venus positive rate tended to be high”. Further, the “Rx::Venus-negative cell masses or RPE cells” value in test [4] (unsorted, FGF8+, Day 10 after reseeding) was “these cell masses were observed to decrease”. Besides, the “distribution of Crx::Venus cell populations in sheet” value in test [5] is listed as “uniformly present”.

The record behind these values is patent US20250019652A1, “PRODUCTION METHOD FOR SHEET-LIKE RETINAL TISSUE” (RIKEN, priority 2021, published 2025).
